In test [1] the target is T1, peptide CDTTATTEPAVHD (entire-length peptide of 13 amino acids used as an immunogen).
T1 construct: Synthetic peptide with an added N-terminal cysteine; It was KLH-coupled only for immunization
T1 peptide: CDTTATTEPAVHD
Description: ELISA on coated peptide, HRP-labeled antibody. As to the method: (§1) The anti-CADM1 v9 antibodies F1222 and F1315 were previously HRP-labeled using Peroxidase Labeling Kit-NH₂ (DOJINDO LABORATORIES), and epitopes were narrowed down according to an ELISA method. Peptide synthesis was outsourced to Toray Research Center, Inc. The peptide was dissolved in 10% DMSO/PBS to prepare a peptide solution having a concentration of 1 mg/mL. […] of the peptide diluted in a carbonate buffer to a concentration of […] was added to Nunc MaxiSorp 96-well plate (Thermo Fisher Scientific) and was left at rest at 4° C. overnight for immobilization. The plate was washed with PBS-T twice, and […] of 1%/BSA/PBS-T was added. The plate was left at rest at room temperature for 1 hour for blocking. The plate was washed with PBS-T twice, and […] of the HRP-labeled antibody diluted in 1% BSA/PBS-T to a concentration of 100 ng/mL was added, followed by incubation at room temperature for 1 hour. The plate was washed with PBS-T four times, and […] of TMB Soluble Reagent (ScyTek Laboratories) was then added for color development. […] of TMB Stop Buffer (ScyTek Laboratories) was further added to terminate the reaction. Finally, using the Ensight plate reader (PerkinElmer), the wavelength at 450 nm was measured.
(§2) In order to narrow down the epitope of the anti-CADM1 v9 antibody, a peptide consisting of 13 amino acids in entire length (SEQ ID NO: 2) used as an immunogen, and peptides obtained by dividing the aforementioned peptide into short fragments (SEQ ID NOS: 28 to 30) were synthesized, and the reactivity of these peptides to the anti-CADM1 v9 antibody was studied using an ELISA method.
(In an ELISA, binding on a coated surface is turned into a signal by an enzyme label.)

The next test concerns the target T2, SEQ ID NO 28.
T2 construct: Short fragment obtained by dividing the 13-aa immunogen peptide; also called divided peptide consisting of 7 amino acids
T2 peptide: CDTTATT
The test can be described thus: ELISA on coated peptide, HRP-labeled antibody. As to the method: as §1, §2

In another test the target is T3, SEQ ID NO 29.
T3 construct: Short fragment obtained by dividing the 13-aa immunogen peptide; also called divided peptide consisting of 7 amino acids
T3 peptide: TATTEPA
The test can be described thus: ELISA on coated peptide, HRP-labeled antibody. As to the method:
as §1, §2

For another test, the target named is T4, SEQ ID NO 30.
T4 construct: Short fragment obtained by dividing the 13-aa immunogen peptide; also called divided peptide consisting of 7 amino acids
T4 peptide: TEPAVHD
Description: ELISA on coated peptide, HRP-labeled antibody. As to the method:
as §1, §2

The target of test [2] is T5, human CADM1 v9 fragment (human, UniProt Q9BY67-4 45-371).
T5 construct: Extracellular region of CADM1 v8/9 released from cells by protease cleavage; It was tested in, or purified from, the culture supernatant of SBC5 cells stably expressing CADM1 v8/9 (approximately 80 kDa, O-glycosylated region); also called v9 fragment of CADM1; CADM1 v8/9 fragment
T5 sequence: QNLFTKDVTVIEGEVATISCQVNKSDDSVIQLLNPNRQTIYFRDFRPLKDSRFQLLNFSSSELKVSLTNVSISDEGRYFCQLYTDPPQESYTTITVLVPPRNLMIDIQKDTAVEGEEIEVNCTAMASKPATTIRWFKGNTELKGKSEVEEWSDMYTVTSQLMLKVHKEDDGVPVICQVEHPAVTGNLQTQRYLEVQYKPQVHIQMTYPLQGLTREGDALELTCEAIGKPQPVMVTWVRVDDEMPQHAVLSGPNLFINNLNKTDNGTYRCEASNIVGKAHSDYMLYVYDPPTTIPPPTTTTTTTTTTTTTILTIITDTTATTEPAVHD
Description: sandwich ELISA on culture supernatant, capture E9935, detection HRP-labeled F1222. As to the method: (§3) PBS-T (137 mM NaCl, 8.1 mM […], 2.68 mM KCl, 1.47 mM KH₂PO₄, and 0.05% Tween 20) was used for washing twice, and […] of 1%/BSA (Wako Pure Chemical Industries, Ltd.)/PBS-T was added. The plate was left at rest at room temperature for 1 hour for blocking. The plate was washed with PBS-T twice, and thereafter, a standard for a calibration curve, a culture supernatant, and serum or pleural effusion were added, followed by incubation at room temperature for 1 hour. The plate was washed with PBS-T four times, and […] of the detection antibody diluted in 1% BSA/PBS-T to a concentration of 100 ng/mL was added, followed by incubation at room temperature for 1 hour. The plate was washed with PBS-T six times, and […] of TMB Soluble Reagent (ScyTek Laboratories) was then added for color development. […] of TMB Stop Buffer (ScyTek Laboratories) was further added to terminate the reaction. Finally, using an Ensight plate reader (PerkinElmer), the wavelength at 450 nm was measured.
(§4) (A) The total amount of CADM1 fragment or other cells and (B) the amount of the CADM1 v9 fragment, secreted in the culture supernatant of SCLC were measured according to a sandwich ELISA method. As a capture antibody, the anti-CADM1 mouse monoclonal antibody E9935 was used. As detection antibodies, the anti-CADM1 antibody E9919 and the anti-CADM1 v8/9 antibody F1222, which were HRP-labeled, were used. […]

The target of test [3] is T5, human CADM1 v9 fragment. Description: sandwich ELISA on culture supernatant, E9935 as capture antibody, detection HRP-labeled F1222. As for the experimental part: as §3, §4

Numbering of substitutions follows the chain as printed.

B1: anti-CADM1 v9 antibody F1222 (antibody, V domains shown)
VH: EVQLVESGGGLVQPKGSLKLSCAASGFTFNTYAMNWVRQAPGKGLEWVARIRSKSNYYTTYYADSVKDRFTISRDDSQSMLYLQMNNLKTEDTAMYYCIRQRHGNFYWGQGTLVTVSA
VL: DIVLTQSPASLAVSLGQRATISCKASQSVDYDGYSYMNWYQQKPGQPPKLLIYAASNLESGIPARFSGSGSGTDFTLNIHPVEEEDAATYYCQQSNEDPPTFGAGTKLELK
notes: Mouse monoclonal antibody from a hybridoma (Cadm1-/- Balb/c mice); It was HRP-labeled (Peroxidase Labeling Kit-NH2) in the sandwich and peptide ELISAs; also called anti-CADM1 v8/9 antibody F1222
In the case of B1, the binding result in test [1] is on record as “binds”; with SEQ ID NO 28 it was “no binding (tested: 100 ng/mL antibody)”; with SEQ ID NO 29, “no binding (tested: 100 ng/mL antibody)”; with SEQ ID NO 30 it was “no binding (tested: 100 ng/mL antibody)”; with human CADM1 v9 fragment [2], “binds”.

B2: anti-CADM1 mouse monoclonal antibody E9935 (antibody, V domains shown)
VH: QVQLQQSGTELAKPGASVKMSCKASGYTFTHYWMHWVKQRPGQGLEWIGFINPGTGYTEYNQKFKDKATLTADKSSSTAYIQLSSLTSEDSAVYYCSRASYYSGSSHAWFGFWGQGTLVTVSA
VL: B1 VL with D30N, Y34D, S35N, N96Y, P100W, A104G, L110I
notes: Mouse monoclonal antibody from a hybridoma; It served as the capture antibody in the sandwich ELISA and, crosslinked to Protein A Sepharose, for purification; also called anti-CADM1 antibody E9935
B2: the binding result in the test with human CADM1 v9 fragment [3] is given as “binds”.

Source of the values: patent publication US20210079092A1 (UNIVERSITY OF TOKYO, published 2021).
